Test results from patent US20250320281A1.

Columns and labels:
Test in all cases: cell-based or functional assay
[1] = target: HIV-1 Env of isolate MG RM-D-028 (HIV-1)
[2] = target: HIV-1 Env of isolate MG RM-D-020 (HIV-1)
[3] = target: HIV-1 Env of isolate MGRM-F1-020 (HIV-1)
[4] = target: HIV-1 Env of isolate MGRM-F1-012 (HIV-1)
[5] = target: HIV-1 Env of pseudovirus MGRM-AG-012 (subtype AG) (HIV-1)
[6] = target: HIV-1 Env of pseudovirus MGRM-AG-011 (subtype AG) (HIV-1)
[7] = target: HIV-1 Env of isolate MG RM-D-011 (HIV-1)
[8] = target: HIV-1 Env of isolate MGRM-F1-008 (HIV-1)
[9] = target: HIV-1 Env of isolate MGRM-F1-006 (HIV-1)
[10] = target: HIV-1 Env of isolate MGRM-F1-015 (HIV-1)
[11] = target: HIV-1 Env of isolate MGRM-F1-014 (HIV-1)
[12] = target: HIV-1 Env of isolate MG RM-D-022 (HIV-1)
[13] = target: HIV-1 Env of isolate MG RM-D-014 (HIV-1)
[14] = target: HIV-1 Env of isolate MGRM-F1-018 (HIV-1)
[15] = target: HIV-1 Env of pseudovirus MGRM-AG-009 (subtype AG) (HIV-1)
[16] = target: HIV-1 Env of isolate MG RM-D-021 (HIV-1)
[17] = target: HIV-1 Env of pseudovirus MGRM-AG-005 (subtype AG) (HIV-1)
[18] = target: HIV-1 Env of pseudovirus MGRM-AE-008 (subtype AE) (HIV-1)
[19] = target: HIV-1 Env of isolate MG RM-D-019 (HIV-1)
[20] = target: HIV-1 Env of isolate MG RM-D-016 (HIV-1)
[21] = target: HIV-1 Env of isolate MG RM-D-026 (HIV-1)
[22] = target: HIV-1 Env of isolate MG RM-D-012 (HIV-1)
[23] = target: HIV-1 Env of isolate MGRM-F1-017 (HIV-1)
[24] = target: HIV-1 Env of isolate MG RM-D-018 (HIV-1)
[25] = target: HIV-1 Env of isolate MGRM-F1-004 (HIV-1)
[26] = target: HIV-1 Env of pseudovirus MGRM-AG-002 (subtype AG) (HIV-1)
[27] = target: HIV-1 Env of pseudovirus MGRM-AG-008 (subtype AG) (HIV-1)
[28] = target: HIV-1 Env of isolate MGRM-F1-010 (HIV-1)
[29] = target: HIV-1 Env of isolate MGRM-F1-021 (HIV-1)
[30] = target: HIV-1 Env of isolate MGRM-F1-013 (HIV-1)
[31] = target: HIV-1 Env of isolate MG RM-D-013 (HIV-1)
[32] = target: HIV-1 Env of isolate MG RM-D-024 (HIV-1)
[33] = target: HIV-1 Env of isolate MG RM-D-029 (HIV-1)
[34] = target: HIV-1 Env of pseudovirus MGRM-AG-013 (subtype AG) (HIV-1)
[35] = target: HIV-1 Env of pseudovirus MGRM-AG-006 (subtype AG) (HIV-1)
[36] = target: HIV-1 Env of pseudovirus MGRM-AE-007 (subtype AE) (HIV-1)
[37] = target: HIV-1 Env of pseudovirus MGRM-AG-003 (subtype AG) (HIV-1)
[38] = target: HIV-1 Env of isolate MGRM-F1-023 (HIV-1)
[39] = target: HIV-1 Env of isolate MGRM-F1-016 (HIV-1)
[40] = target: HIV-1 Env of isolate MGRM-F1-022 (HIV-1)
[41] = target: HIV-1 Env of isolate MGRM-Chronic-B-012 (HIV-1)
[42] = target: HIV-1 Env of pseudovirus MGRM-AG-001 (subtype AG) (HIV-1)
[43] = target: HIV-1 Env of isolate MGRM-C-026 (pseudovirus) (HIV-1)
[44] = target: HIV-1 Env of isolate JR-CSF (pseudovirus) (HIV-1) (UniProt P20871)
[45] = target: HIV-1 Env of isolate 92BR020 (pseudovirus) (HIV-1)
[46] = target: HIV-1 Env of isolate 94UG103 (pseudovirus) (HIV-1)
[47] = target: HIV-1 Env of isolate MGRM-A-003 (pseudovirus) (HIV-1)
[48] = target: HIV-1 Env of isolate 92WR026 (pseudovirus) (HIV-1)
[49] = target: HIV-1 Env of isolate 92WR021 (pseudovirus) (HIV-1)
[50] = target: HIV-1 Env of isolate MGRM-A-008 (pseudovirus) (HIV-1)
[51] = target: HIV-1 Env of isolate 93UG077 (pseudovirus) (HIV-1)
[52] = target: HIV-1 Env of isolate MGRM-AE-003 (pseudovirus) (HIV-1)
[53] = target: HIV-1 Env of isolate 93WR029 (pseudovirus) (HIV-1)
[54] = target: HIV-1 Env of isolate MGRM-AE-001 (pseudovirus) (HIV-1)
[55] = target: HIV-1 Env of isolate MGRM-A-010 (pseudovirus) (HIV-1)
[56] = target: HIV-1 Env of isolate 92UG031 (pseudovirus) (HIV-1)
[57] = target: HIV-1 Env of isolate MGRM-A-001 (pseudovirus) (HIV-1)
[58] = target: HIV-1 Env of isolate 94KE105 (pseudovirus) (HIV-1)
[59] = target: HIV-1 Env of isolate 92UG037 (pseudovirus) (HIV-1)
[60] = target: HIV-1 Env of isolate MGRM-A-011 (pseudovirus) (HIV-1)
[61] = target: HIV-1 Env of isolate MGRM-A-013 (pseudovirus) (HIV-1)
[62] = target: HIV-1 Env of isolate MGRM-A-012 (pseudovirus) (HIV-1)
[63] = target: HIV-1 Env of isolate 92WR009 (pseudovirus) (HIV-1)
[64] = target: HIV-1 Env of isolate MGRM-A-014 (pseudovirus) (HIV-1)
[65] = target: HIV-1 Env of isolate MGRM-AE-002 (pseudovirus) (HIV-1)
[66] = target: HIV-1 Env of isolate MGRM-A-006 (pseudovirus) (HIV-1)
[67] = target: HIV-1 Env of isolate MGRM-A-005 (pseudovirus) (HIV-1)
[68] = target: HIV-1 Env of isolate MGRM-A-007 (pseudovirus) (HIV-1)
[69] = target: HIV-1 Env of isolate MGRM-A-009 (pseudovirus) (HIV-1)
[70] = target: HIV-1 Env of isolate 92RW008 (pseudovirus) (HIV-1)
[71] = target: HIV-1 Env of isolate MGRM-A-004 (pseudovirus) (HIV-1)
[72] = target: HIV-1 Env of isolate 92WR024 (pseudovirus) (HIV-1)
[73] = target: HIV-1 Env of isolate 92WR020 (pseudovirus) (HIV-1)
[74] = target: HIV-1 Env of isolate 92TH021 (pseudovirus) (HIV-1)
[75] = target: HIV-1 Env of isolate VLGCA1 (pseudovirus) (HIV-1)
[76] = target: HIV-1 Env of isolate MGRM-A-002 (pseudovirus) (HIV-1)
[77] = target: HIV-1 Env of isolate CMU02 (pseudovirus) (HIV-1)

Sequence of PGT-145 (4995_P16) (antibody) (VH): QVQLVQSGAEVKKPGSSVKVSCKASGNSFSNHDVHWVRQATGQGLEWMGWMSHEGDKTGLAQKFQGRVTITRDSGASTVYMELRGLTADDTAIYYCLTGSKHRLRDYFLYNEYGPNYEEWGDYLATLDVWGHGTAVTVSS
Sequence of PGT-145 (4995_P16) (antibody) (VL): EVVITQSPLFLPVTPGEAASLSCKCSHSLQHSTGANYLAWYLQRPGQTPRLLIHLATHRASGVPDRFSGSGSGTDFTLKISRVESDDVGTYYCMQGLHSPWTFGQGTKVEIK

PGT-145 (4995_P16) (antibody)
IC50 [1]: 0.721 µg/mL
IC50 [2]: 10 µg/mL
IC50 [3]: 0.816 µg/mL
IC50 [4]: 0.113 µg/mL
IC50, pseudovirus neutralization [5]: > 50 µg/mL
IC50, pseudovirus neutralization [6]: 0.003 µg/mL
IC50 [7]: 14.7 µg/mL
IC50 [8]: 0.228 µg/mL
IC50 [9]: 13.6 µg/mL
IC50 [10]: 1.76 µg/mL
IC50 [11]: 0.009 µg/mL
IC50 [12]: 34.3 µg/mL
IC50 [13]: 2.51 µg/mL
IC50 [14]: 1.02 µg/mL
IC50, pseudovirus neutralization [15]: > 50 µg/mL
IC50 [16]: > 50 µg/mL
IC50, pseudovirus neutralization [17]: 0.045 µg/mL
IC50, pseudovirus neutralization [18]: 1.46 µg/mL
IC50 [19]: 0.111 µg/mL
IC50 [20]: > 50 µg/mL
IC50 [21]: 0.41 µg/mL
IC50 [22]: > 50 µg/mL
IC50 [23]: 0.286 µg/mL
IC50 [24]: 0.065 µg/mL
IC50 [25]: 0.361 µg/mL
IC50, pseudovirus neutralization [26]: 0.056 µg/mL
IC50, pseudovirus neutralization [27]: 0.244 µg/mL
IC50 [28]: 3.32 µg/mL
IC50 [29]: 8.04 µg/mL
IC50 [30]: 0.402 µg/mL
IC50 [31]: 3.48 µg/mL
IC50 [32]: 0.224 µg/mL
IC50 [33]: 0.03 µg/mL
IC50, pseudovirus neutralization [34]: 14.4 µg/mL
IC50, pseudovirus neutralization [35]: 6.6 µg/mL
IC50, pseudovirus neutralization [36]: 0.181 µg/mL
IC50, pseudovirus neutralization [37]: > 50 µg/mL
IC50 [38]: 5.88 µg/mL
IC50 [39]: 17.5 µg/mL
IC50 [40]: 0.009 µg/mL
IC50, pseudovirus neutralization [41]: 9.06 µg/mL
IC50, pseudovirus neutralization [42]: 0.164 µg/mL

4873_E03 (PGT-121) (antibody)
Primary Neutralization Index (B cell culture supernatant) [43]: 371
Primary Neutralization Index (B cell culture supernatant) [44]: 2.2
Primary Neutralization Index (B cell culture supernatant) [45]: 3.6
Primary Neutralization Index (B cell culture supernatant) [46]: 0.8

PGT-121 (4838_L06; 4873_E03) (antibody)
IC50 (µg/mL), pseudovirus neutralization [47]: 0.435 µg/mL
IC50 (µg/mL), pseudovirus neutralization [48]: 0.014 µg/mL
IC50 (µg/mL), pseudovirus neutralization [49]: 0.009 µg/mL
IC50 (µg/mL), pseudovirus neutralization [50]: > 50 µg/mL
IC50 (µg/mL), pseudovirus neutralization [51]: 0.019 µg/mL
IC50 (µg/mL), pseudovirus neutralization [52]: > 50 µg/mL
IC50 (µg/mL), pseudovirus neutralization [53]: > 50 µg/mL
IC50 (µg/mL), pseudovirus neutralization [54]: > 50 µg/mL
IC50 (µg/mL), pseudovirus neutralization [55]: 2.44 µg/mL
IC50 (µg/mL), pseudovirus neutralization [56]: > 50 µg/mL
IC50 (µg/mL), pseudovirus neutralization [57]: > 50 µg/mL
IC50 (µg/mL), pseudovirus neutralization [58]: 0.029 µg/mL
IC50 (µg/mL), pseudovirus neutralization [59]: 0.031 µg/mL
IC50 (µg/mL), pseudovirus neutralization [60]: > 50 µg/mL
IC50 (µg/mL), pseudovirus neutralization [61]: 0.387 µg/mL
IC50 (µg/mL), pseudovirus neutralization [62]: 0.092 µg/mL
IC50 (µg/mL), pseudovirus neutralization [63]: 1.74 µg/mL
IC50 (µg/mL), pseudovirus neutralization [64]: 0.003 µg/mL
IC50 (µg/mL), pseudovirus neutralization [65]: > 50 µg/mL
IC50 (µg/mL), pseudovirus neutralization [66]: 0.396 µg/mL
IC50 (µg/mL), pseudovirus neutralization [67]: > 50 µg/mL
IC50 (µg/mL), pseudovirus neutralization [68]: > 50 µg/mL
IC50 (µg/mL), pseudovirus neutralization [69]: 0.006 µg/mL
IC50 (µg/mL), pseudovirus neutralization [46]: 2.52 µg/mL
IC50 (µg/mL), pseudovirus neutralization [70]: 0.003 µg/mL
IC50 (µg/mL), pseudovirus neutralization [71]: > 50 µg/mL
IC50 (µg/mL), pseudovirus neutralization [72]: > 50 µg/mL
IC50 (µg/mL), pseudovirus neutralization [73]: 0.004 µg/mL
IC50 (µg/mL), pseudovirus neutralization [74]: > 50 µg/mL
IC50 (µg/mL), pseudovirus neutralization [75]: > 50 µg/mL
IC50 (µg/mL), pseudovirus neutralization [76]: 0.013 µg/mL
IC50 (µg/mL), pseudovirus neutralization [77]: > 50 µg/mL

PGT-122 (4877_D15) (antibody)
IC50 (µg/mL), pseudovirus neutralization [47]: 3.79 µg/mL
IC50 (µg/mL), pseudovirus neutralization [48]: 0.036 µg/mL
IC50 (µg/mL), pseudovirus neutralization [49]: 0.021 µg/mL
IC50 (µg/mL), pseudovirus neutralization [50]: > 50 µg/mL
IC50 (µg/mL), pseudovirus neutralization [51]: 0.084 µg/mL
IC50 (µg/mL), pseudovirus neutralization [52]: > 50 µg/mL
IC50 (µg/mL), pseudovirus neutralization [53]: > 50 µg/mL
IC50 (µg/mL), pseudovirus neutralization [54]: > 50 µg/mL
IC50 (µg/mL), pseudovirus neutralization [55]: 2.51 µg/mL
IC50 (µg/mL), pseudovirus neutralization [56]: > 50 µg/mL
IC50 (µg/mL), pseudovirus neutralization [57]: > 50 µg/mL
IC50 (µg/mL), pseudovirus neutralization [58]: 0.056 µg/mL
IC50 (µg/mL), pseudovirus neutralization [59]: 0.068 µg/mL
IC50 (µg/mL), pseudovirus neutralization [60]: > 50 µg/mL
IC50 (µg/mL), pseudovirus neutralization [61]: 2.47 µg/mL
IC50 (µg/mL), pseudovirus neutralization [62]: 0.257 µg/mL
IC50 (µg/mL), pseudovirus neutralization [63]: 42.4 µg/mL
IC50 (µg/mL), pseudovirus neutralization [64]: 0.007 µg/mL
IC50 (µg/mL), pseudovirus neutralization [65]: > 50 µg/mL
IC50 (µg/mL), pseudovirus neutralization [66]: > 50 µg/mL
IC50 (µg/mL), pseudovirus neutralization [67]: > 50 µg/mL
IC50 (µg/mL), pseudovirus neutralization [68]: > 50 µg/mL
IC50 (µg/mL), pseudovirus neutralization [69]: 0.012 µg/mL
IC50 (µg/mL), pseudovirus neutralization [46]: 2.04 µg/mL
IC50 (µg/mL), pseudovirus neutralization [70]: 0.003 µg/mL
IC50 (µg/mL), pseudovirus neutralization [71]: > 50 µg/mL
IC50 (µg/mL), pseudovirus neutralization [72]: > 50 µg/mL
IC50 (µg/mL), pseudovirus neutralization [73]: 0.009 µg/mL
IC50 (µg/mL), pseudovirus neutralization [74]: > 50 µg/mL
IC50 (µg/mL), pseudovirus neutralization [75]: > 50 µg/mL
IC50 (µg/mL), pseudovirus neutralization [76]: 0.017 µg/mL
IC50 (µg/mL), pseudovirus neutralization [77]: > 50 µg/mL
